Experimental data from US8809529B2, “Imidazo[1,2-α]pyrazine derivatives” (Promega Corporation, priority 2010, dated 2014).

Columns and labels:
[1] = Km of L27V reversion variants for PBI-3939; type: biochemical
Description: Relative activities <1 indicate the reversion is detrimental compared to the residue at that site in the L27V variant. Relative activities >1 indicate the reversion is favorable for activity compared to the residue at that site in the L27V variant. Some additional data on these mutants indicated the following: 166K, 54F, 54A and L27V were tested for thermal stability. The T1/2 60° C. for 166K, 54F, and 54A were 87, 74, and 33%, respectively, indicating these substitutions cause a reduction in thermal stability. […] This indicates higher substrate affinity for L27V, particularly for the position 54 substitutions.

caspase-3 [2] = target: T1, caspase-3 (Homo sapiens, UniProt P42574); assay: Caspase-3 bioluminescent assay with L27V and PBI-3741; type: biochemical; settings: luminescence, 3 hrs at room temperature
T1 sequence (P42574 29-175 limits assumed): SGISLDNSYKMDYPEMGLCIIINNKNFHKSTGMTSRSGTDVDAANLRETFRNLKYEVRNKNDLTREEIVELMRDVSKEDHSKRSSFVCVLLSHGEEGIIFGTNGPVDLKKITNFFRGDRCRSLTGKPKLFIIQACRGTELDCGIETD
T1 sequence (P42574 176-277 limits assumed): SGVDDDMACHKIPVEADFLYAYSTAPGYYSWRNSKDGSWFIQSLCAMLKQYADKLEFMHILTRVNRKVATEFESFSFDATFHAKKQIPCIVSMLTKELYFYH
Description: (§1) 2. The L27V variant was used in a bioluminescent assay using a pro-coelenterazine substrate comprising the DEVD caspase-3 cleavage sequence “DEVD” disclosed as SEQ ID NO: 581). Purified caspase-3 enzyme (1 mg/mL) in 100 mM MES pH 6 (50 μL) was mixed with 227 nM L27V02 variant and 47 μM PBI-3741 (z-DEVD-coelenterazine-h (“DEVD” disclosed as SEQ ID NO: 581)) in assay buffer (50 μL). Reactions were incubated for 3 hrs at room temperature, and luminescence detected as previously described. The assay with the L27V variant was compared to a firefly luciferase version of the assay, CASPASE-GLO® 3/7-Assay system (Caspase-Glo; Promega Corp.).

caspase-3 [3] = assay: as above; type: biochemical; settings: luminescence, 3 hrs at room temperature
Description: as §1

[4] = Exposure of L27V to 3 M urea; type: physicochemical; settings: 30 min at 25° C.
Description: A 0.31 mg/mL stock of purified L27V variant was diluted 100,000-fold into buffer (PBS+1 mM DTT+0.005% IGEPAL) and incubated with 3 M urea for 30 min at 25° C. and then mixed 1:1 (50 μL+50 μL) with an assay reagent containing 100 μM PBI-3939 (previously described). The reactions were read on a TECAN® INFINITE® F500 luminometer as described previously (for 100 min; 1 min read intervals) (FIG. 89).

HEK293 cells = assay: Brightness on a per mole basis in HEK293 cells (HT7 fusions); type: cell-based, human
[5] = Brightness of purified OgLuc variant compared to firefly luciferase; type: biochemical
Description: The 9B8 OgLuc variant was overexpressed and purified as described in Example 33. Reactions between diluted enzyme and substrate were performed using the following 2× buffer/assay reagent: 100 mM MES pH 6.0, 1 mM CDTA, 150 mM KCl, 35 mM thiourea, 2 mM DTT, 0.25% TERGITOL® NP-9 (v/v), 0.025% MAZU® DF 204, 10 mg/mL […], and 20 μM PBI-3939. The final assay concentrations of purified enzyme and substrate were 0.5 pM and […], respectively. In parallel, reactions between diluted purified firefly luciferase (i.e., QUANTILUM® Recombinant Luciferase (Promega Corp.)) and luciferin were analyzed. The assay buffer/reagent for the firefly luciferase reaction was BRIGHT-GLO™, and the final assay concentrations were 0.5 pM enzyme and 500 μM luciferin. As the buffers/reagents for each reaction were known to provide “glow” kinetics, a 15 min time point was used to collect luminescence data.

[6] = test system: antioxidant response element (ARE); assay: ARE transcriptional reporter, reverse transfection, HEK293 cells; type: cell-based, human; settings: for baseline: 24 h, 100 ng DNA
Description: HEK293 cells were trypsinized (T75 flask, 3 mL trypsin) and resuspended in […] (approximately 8.9×10^6 total cells) in medium containing DMEM+10% FBS+1×NEAA. Each transcriptional reporter was prepared for transfection by mixing 1.2 mL OPTI-MEM®, 12 μL transcription reporter DNA (100 ng) and 36 μL FUGENE® HD transfection reagent together and incubated at room temperature for 35 min. Following incubation, 624 μL of the transfection/reporter DNA mixture was added to 12 mL of cell suspension and mixed by inversion. After mixing, 100 μL of the cell/DNA mixture was added to wells of a 96-well plate (2 constructs/plate). The cells were incubated at 37° C. for 22 hrs. Tert-butylhydroquinone (a Nrf2 stabilizer; tBHQ; 1 μM (“baseline”) or 20 μM) or sulphoraphane, (an organosulfer antioxidant known to activate Nrf2; 1 μM (“baseline”) or 20 μM) in OPTI-MEM® was added to each well and incubated at 37° C. for 24 hrs. Cells were lysed with 100 μL lytic reagent as described above for the forward transfection. Luminescence was measured on a GLOMAX® Luminometer.

caspase-3 [7] = target: T1, caspase-3; assay: Caspase-3 bioluminescent assay with 9B8 opt and z-DEVD-coelenterazine-h; type: biochemical
Description: 1. […] Purified caspase-3 enzyme was mixed with an E. coli lysate sample expressing the variant 9B8 opt, which was prepared as described in Example 27, and diluted 10-fold in a buffer containing 100 mM MES pH 6.0, 1 mM CDTA, 150 mM KCl, 35 mM thiourea, 2 mM DTT, 0.25% TERGITOL® NP-9 (v/v), 0.025% MAZU® DF 204, with or without 23.5 μM z-DEVD-coelenterazine-h in 100 mM HEPES pH 7.5 (“DEVD” disclosed as SEQ ID NO: 581). The caspase-3 enzyme was incubated with the lysate sample for 3 hrs at room temperature, and luminescence detected on a Turner MODULUS™ luminometer at various time points. A sample containing only bacterial lysate and a sample containing only caspase-3 were used as controls. Three replicates were used.

[8] = test system: antioxidant response element (ARE); assay: ARE transcriptional reporter, reverse transfection, HEK293 cells; type: cell-based, human; settings: 24 h, 100 ng DNA

B1: L27V: 9B8 opt+K33N variant with L27V, T39T, K43R, Y68D (protein)
chain: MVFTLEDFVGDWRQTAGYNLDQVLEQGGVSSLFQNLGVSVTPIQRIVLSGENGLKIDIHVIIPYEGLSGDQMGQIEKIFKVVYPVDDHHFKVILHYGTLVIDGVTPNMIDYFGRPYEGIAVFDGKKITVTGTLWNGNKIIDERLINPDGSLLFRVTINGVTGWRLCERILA
[1]
  Km: 18 µM
caspase-3 [2]
  (+) caspase: 11,532
caspase-3 [3]
  (−) caspase: 803
[4]
  reduction of activity by 3M urea: approximately 50%

B2: 9B8: IV variant with Q18L, F68Y, L72Q, M75K; in Tables 12, 22, 23, 26, 27 “9B8” stands for 9B8 opt (protein)
chain: MVFTLEDFVGDWRQTAGYNLDQVLEQGGLSSLFQKLGVSVTPIQKIVLSGENGLKIDIHVIIPYEGLSGYQMGQIEKIFKVVYPVDDHHFKVILHYGTLVIDGVTPNMIDYFGRPYEGIAVFDGKKITVTGTLWNGNKIIDERLINPDGSLLFRVTINGVTGWRLCERILA
HEK293 cells
  brightness relative to Luc2: approximately 15 fold
  brightness relative to hRL: > 100 fold

B3: 9B8 opt: codon optimized version of the 9B8 variant (protein)
chain: MVFTLEDFVGDWRQTAGYNLDQVLEQGGLSSLFQKLGVSVTPIQKIVLSGENGLKIDIHVIIPYEGLSGYQMGQIEKIFKVVYPVDDHHFKVILHYGTLVIDGVTPNMIDYFGRPYEGIAVFDGKKITVTGTLWNGNKIIDERLINPDGSLLFRVTINGVTGWRLCERILA
[5]
  brightness relative to QUANTILUM Recombinant Luciferase with BRIGHT-GLO: approximately 8 fold
[5]; 0.5 pM enzyme, 15 min, 9B8 opt with PBI-3939, QUANTILUM with BRIGHT-GLO
  luminescence: 19,200 RLU
[6]; 1 μM sulphoraphane
  baseline: 15,600,000
[6]; 1 μM tBHQ
  baseline: 15,100,000
[6]; sulphoraphane
  Response: 5.8
[6]; tBHQ
  Response: 8
caspase-3 [7]; 5 min, z-DEVD-coelenterazine-h
  + caspase (RLU): 25,411 RLU
  no caspase (RLU): 26,023 RLU
caspase-3 [7]; 15.3 min
  + caspase (RLU): 36,906 RLU
  no caspase (RLU): 7,707 RLU
caspase-3 [7]; 29.9 min
  + caspase (RLU): 41,854 RLU
  no caspase (RLU): 4,013 RLU
caspase-3 [7]; 60.9 min
  + caspase (RLU): 43,370 RLU
  no caspase (RLU): 2,305 RLU
caspase-3 [7]; 190.3 min
  + caspase (RLU): 42,448 RLU
  no caspase (RLU): 1,155 RLU
[8]
  RLU (20 μM sulphoraphane): 89,600,000 RLU
  RLU (20 μM tBHQ): 120,000,000 RLU
